Test results as given in patent US20180030118A1.

Experiments:
Test in all cases: ELISA, GP coated 200 ng/well, mAb at 2 ug/mL; negative control
[1] = molecular target: MARV Ravn GPe (Marburg virus, strain Ravn) (UniProt Q1PDC7)
[2] = molecular target: MARV Angola GPe (Marburg virus, strain Angola) (UniProt Q1PD50)
[3] = molecular target: MARV Musoke GPe (Marburg virus, strain Musoke) (UniProt P35253)
Sequence of MARV Musoke GPe (Marburg virus, strain Musoke) (P35253 19-648): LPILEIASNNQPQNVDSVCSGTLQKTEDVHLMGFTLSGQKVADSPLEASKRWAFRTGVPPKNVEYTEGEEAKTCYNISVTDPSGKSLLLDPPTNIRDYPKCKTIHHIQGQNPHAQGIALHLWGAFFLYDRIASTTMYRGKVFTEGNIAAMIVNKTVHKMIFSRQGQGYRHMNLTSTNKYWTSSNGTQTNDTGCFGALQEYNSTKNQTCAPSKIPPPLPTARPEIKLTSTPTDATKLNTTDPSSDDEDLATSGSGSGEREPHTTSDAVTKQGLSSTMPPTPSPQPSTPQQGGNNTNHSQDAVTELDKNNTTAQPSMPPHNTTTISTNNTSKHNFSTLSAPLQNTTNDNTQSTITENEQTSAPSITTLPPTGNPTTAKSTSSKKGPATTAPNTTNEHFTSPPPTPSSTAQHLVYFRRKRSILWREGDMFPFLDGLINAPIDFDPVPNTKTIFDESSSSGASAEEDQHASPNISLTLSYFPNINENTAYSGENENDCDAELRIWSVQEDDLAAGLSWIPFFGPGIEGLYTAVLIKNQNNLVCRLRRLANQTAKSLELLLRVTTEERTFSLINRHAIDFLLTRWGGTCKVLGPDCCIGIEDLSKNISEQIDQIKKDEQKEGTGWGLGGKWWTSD

Sequence of MARV Ravn GPe (Marburg virus, strain Ravn) (Q1PDC7 19-648): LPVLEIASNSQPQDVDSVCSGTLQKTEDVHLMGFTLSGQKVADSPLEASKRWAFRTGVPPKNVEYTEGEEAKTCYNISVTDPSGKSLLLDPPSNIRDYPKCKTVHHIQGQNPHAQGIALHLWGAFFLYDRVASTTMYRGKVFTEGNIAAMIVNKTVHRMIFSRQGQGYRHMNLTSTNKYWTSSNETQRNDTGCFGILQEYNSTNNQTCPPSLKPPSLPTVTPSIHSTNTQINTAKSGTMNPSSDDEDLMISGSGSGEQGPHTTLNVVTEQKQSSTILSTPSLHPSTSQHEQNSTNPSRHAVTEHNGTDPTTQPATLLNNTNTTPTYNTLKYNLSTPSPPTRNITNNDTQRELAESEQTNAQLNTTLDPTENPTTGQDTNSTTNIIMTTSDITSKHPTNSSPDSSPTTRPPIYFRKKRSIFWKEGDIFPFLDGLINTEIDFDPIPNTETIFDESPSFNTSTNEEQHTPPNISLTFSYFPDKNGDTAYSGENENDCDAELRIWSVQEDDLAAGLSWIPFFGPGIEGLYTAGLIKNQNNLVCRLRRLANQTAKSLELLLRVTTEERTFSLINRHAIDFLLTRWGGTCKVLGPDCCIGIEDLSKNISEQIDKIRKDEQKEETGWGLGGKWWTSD
Sequence of MARV Angola GPe (Marburg virus, strain Angola) (Q1PD50 19-648): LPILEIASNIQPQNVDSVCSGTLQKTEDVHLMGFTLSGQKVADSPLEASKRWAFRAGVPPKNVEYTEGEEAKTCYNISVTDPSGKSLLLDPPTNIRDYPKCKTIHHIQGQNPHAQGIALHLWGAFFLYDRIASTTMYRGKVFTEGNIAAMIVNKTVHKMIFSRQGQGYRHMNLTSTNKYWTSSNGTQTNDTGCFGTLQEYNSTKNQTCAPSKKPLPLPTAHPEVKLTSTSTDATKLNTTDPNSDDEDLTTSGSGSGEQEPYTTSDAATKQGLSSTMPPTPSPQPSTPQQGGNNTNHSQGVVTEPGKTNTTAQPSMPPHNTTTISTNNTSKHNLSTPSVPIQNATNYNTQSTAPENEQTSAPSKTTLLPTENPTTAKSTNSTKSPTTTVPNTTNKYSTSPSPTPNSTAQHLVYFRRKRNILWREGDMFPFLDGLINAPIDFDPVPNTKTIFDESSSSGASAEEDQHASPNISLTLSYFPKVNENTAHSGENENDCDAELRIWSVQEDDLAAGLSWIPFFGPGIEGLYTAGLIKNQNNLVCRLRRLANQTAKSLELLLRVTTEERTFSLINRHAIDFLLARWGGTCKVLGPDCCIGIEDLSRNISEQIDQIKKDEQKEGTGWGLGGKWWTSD

Row | Substance | OD405 @ 30 min [1] [OD405] | OD405 @ 30 min [2] [OD405] | OD405 @ 30 min [3] [OD405]
1 | IgG Neg Control (human) (antibody) | 0.052 | 0.054 | 0.056
2 | IgG Neg Control (murine) (antibody) | 0.049 | 0.047 | 0.049
